Test results as given in patent US20190062422A1 (MorphoSys, published 2019).

T1: mouse IL17C (mouse, UniProt Q8K4C5 17-194, limits assumed, biotinylated in the receptor interaction, inhibition and serum stability assays (sites not given))
T1 construct: Bought recombinant protein; About 22 kDa reduced and about 40 kDa non-reduced on SDS-PAGE; Used plain (coated, ELISA) or biotinylated; also called biotinylated mouse IL17C; biotin-IL17C
T1 sequence (looked up): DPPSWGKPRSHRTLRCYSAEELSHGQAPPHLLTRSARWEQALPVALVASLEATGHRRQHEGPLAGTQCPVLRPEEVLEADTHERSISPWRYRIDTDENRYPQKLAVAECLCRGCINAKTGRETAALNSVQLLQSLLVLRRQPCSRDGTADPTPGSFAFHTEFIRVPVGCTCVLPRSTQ

T2: human IL17C (human, UniProt Q9P0M4 19-197)
T2 sequence: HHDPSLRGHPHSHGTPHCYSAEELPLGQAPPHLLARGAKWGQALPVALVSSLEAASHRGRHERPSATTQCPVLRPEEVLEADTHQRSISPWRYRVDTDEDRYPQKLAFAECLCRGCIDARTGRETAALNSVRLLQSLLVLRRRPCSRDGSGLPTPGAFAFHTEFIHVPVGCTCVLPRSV

T3: mouse IL-17B (mouse, UniProt Q9QXT6 23-180, limits assumed)
T3 sequence (looked up): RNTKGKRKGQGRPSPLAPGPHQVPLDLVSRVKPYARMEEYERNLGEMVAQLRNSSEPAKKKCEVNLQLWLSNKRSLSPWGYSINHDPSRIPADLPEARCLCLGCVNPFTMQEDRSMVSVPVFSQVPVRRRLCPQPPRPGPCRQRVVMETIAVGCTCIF


What was measured:
mouse IL17C [1] = biological target: T1, mouse IL17C; test: solution equilibrium titration (SET), ECL based, monovalent Fab fragment (Fab_FH format)
Experimental: Monovalent affinities of anti-IL17C antibodies were determined by solution equilibrium titration (SET) using Fab fragments. Affinity determination in solution was basically performed as described in the literature (Friquet et al., (1985) J. Immunol. Meth. 77: 305-19). In order to improve the sensitivity and accuracy of the SET method, it was transferred from classical ELISA to ECL based technology (Haenel et al. (2005) Anal Biochem. 339.1: 182-84). Binders were expressed and purified in Fab_FH format.

human IL17C = biological target: T2, human IL17C; test: ELISA, purified chimeric human/mouse IgG2a on huIL-17C
mouse IL-17B = biological target: T3, mouse IL-17B; test: ELISA, purified chimeric human/mouse IgG2a on msIL-17B
mouse IL17C [2] = biological target: T1, mouse IL17C; test: ELISA, purified chimeric human/mouse IgG2a titrated on mouse IL17C, n=1-2
Experimental: All purified chimeric human-mouse chimeric IgG2a antibodies were titrated on mouse IL17C for EC₅₀ determination in ELISA starting with a concentration of 100 nM. EC₅₀ values on mouse IL17C were determined in 1 to 3 independent experiments.

mouse IL17C [3] = biological target: T1, mouse IL17C; test: ELISA on biotin-IL17C captured on avidin: chimeric IgG2a incubated 24 h at 37°C in mouse serum against freshly diluted IgG2a
Experimental: 96 well Maxisorp plates (Nunc; #442404) were coated with avidin at a concentration of 1 μg/ml in PBS overnight at 4° C. The next day, anti-IL17 chimeric IgG2a were incubated in mouse serum for 24 h at 37° C. at a final concentration 100 μg/mL. After the incubation step the antibodies were diluted 1:100 in LowCross buffer (Candor Bioscience; #100500). As a reference the same set of antibodies were freshly diluted in LowCross buffer+1% mouse serum and incubated for 30 min at RT. Avidin coated plates were incubated with blocking buffer (Superblock blocking buffer from Pierce, #37515) and subsequently 100 μL of 0.1 μg/mL biotin-IL17C in LowCross buffer was added to blocked wells. After a washing step a serial dilution of the serum-incubated and freshly diluted IgGs was added. Binding of IgGs was detected by anti-mouse-IgG2a POD conjugated detection antibody (diluted 1:5000 in LowCross buffer) using TMB One Component HRP as substrate. The reaction was stopped by adding 1M HCl and absorbance was measured at 450 nm.

mouse IL17C [4] = biological target: T1, mouse IL17C; test: mIL17C - mIL-17RE inhibition assay (MSD): human/mouse IgG2a pre-incubated with biotinylated mouse IL17C, binding to coated mouse IL17RE/Fc detected by Streptavidin-ECL
Experimental: To determine inhibitory activity of purified anti-IL17C human-mouse chimeric IgG2a in a mIL-17 RE interaction assay, Maxisorp™ 384 well MSD plates were coated with 30 μL mouse IL17RE/Fc at 75 ng/mL in PBS at 4° C. overnight. The next day 25 μL of a serial antibody dilution (concentrations from 0.001 to 100 nM) were pre-incubated for 30 min at RT with an equal volume of biotinylated mouse IL17C at 0.125 nM. After blocking of plates for 1 h with 2.5% BSA in PBST, preformed antibody-ligand complexes were added for 1 h to coated IL17RE/Fc and receptor binding was detected via Streptavidin-ECL using MSD Sector Imager.
To characterize the antibodies in human/mouse IgG2a format in more detail, for each candidate IC₅₀ values were determined in the IL-17 receptor E inhibition assay as described herein above in up to 4 independent experiments.

Binder | binding result (mouse IL17C [1]) | binding result (human IL17C) | binding result (mouse IL-17B) | EC50 (mouse IL17C [2]) [nM] | Coefficient of variation (Mouse Serum Stability Assay 24h/37°C) (mouse IL17C [3]) [%] | Kd (mouse IL17C [1]) [nM] | IC50 (mouse IL17C [4]) [nM]
MOR12757 (antibody, V domains shown, Tested as human-mouse chimeric IgG2a (human variable, mouse constant regions); Potential N-linked glycosylation sites were removed by site-directed mutagenesis) VH: EVQLLESGGGLVQPGGSLRLSCAASGFTFSSYAMSWVRQAPGKGLEWVSFISSGGSETFYADSVKGRFTISRDNSKNTLYLQMNSLRAEDTAVYYCARVSYIYYYSWVLFDVWGQGTLVTVSS VL: DIQMTQSPSSLSASVGDRVTITCRASQGIGTALNWYQQKPGKAPKLLIYDVSSLQSGVPSRFSGSGSGTDFTLTISSLQPEDFATYYCQQGLFLPFTFGQGTKVEIKR | no binding |  |  |  |  |  | 
MOR12741 (antibody, V domains shown, Tested as human-mouse chimeric IgG2a (human variable, mouse constant regions); Potential N-linked glycosylation sites were removed by site-directed mutagenesis) VH: QVQLVQSGAEVKKPGSSVKVSCKASGGTFSSYAISWVRQAPGQGLEWMGMIMPEVGMADYAQKFQGRVTITADESTSTAYMELSSLRSEDTAVYYCARDFIAVGSLEIWHYYYGLDVWGQGTLVTVSS VL: DIELTQPPSVSVSPGQTASITCSGDNIGEHYASWYQQKPGQAPVLVISYDNERPSGIPERFSGSNSGNTATLTISGTQAEDEADYYCQSWTSQKPDYVFGGGTKLTVLG |  | no binding | no binding | 0.47 | 13 |  | 
MOR12759 (antibody, V domains shown, Tested as human-mouse chimeric IgG2a (human variable, mouse constant regions); Potential N-linked glycosylation sites were removed by site-directed mutagenesis) VH: EVQLVQSGAEVKKPGESLKISCKGSGYSFNNYWIAWVRQMPGKGLEWMGFIYPSNSATQYSPSFQGQVTISADKSISTAYLQWSSLKASDTAMYYCARDNEYSDSYFDVWGQGTLVTVSS VL: DIVLTQSPATLSLSPGERATLSCRASQIVSSYLAWYQQKPGQAPRLLIYDASSRATGIPARFSGSGSGTDFTLTISSLEPEDFAVYYCQQSVNFPTTFGQGTKVEIKR |  | no binding | no binding | 0.29 | 8.8 | 0.22 | 0.028
MOR12760 (antibody, V domains shown, Tested as human-mouse chimeric IgG2a (human variable, mouse constant regions); Potential N-linked glycosylation sites were removed by site-directed mutagenesis) VH: EVQLVQSGAEVKKPGESLKISCKGSGYSFNNYWIAWVRQMPGKGLEWMGFIYPSNSATQYSPSFQGQVTISADKSISTAYLQWSSLKASDTAMYYCARDNEYSDSYFDVWGQGTLVTVSS VL: not shown |  | no binding | no binding | 0.27 | 35.3 |  | 0.122
MOR12762 (antibody, V domains shown, Tested as human-mouse chimeric IgG2a (human variable, mouse constant regions); Potential N-linked glycosylation sites were removed by site-directed mutagenesis) VH: EVQLVQSGAEVKKPGESLKISCKGSGYSFNNYWIAWVRQMPGKGLEWMGFIYPSNSATQYSPSFQGQVTISADKSISTAYLQWSSLKASDTAMYYCARDNEYSDSYFDVWGQGTLVTVSS VL: DIVLTQSPATLSLSPGERATLSCRASQIVSSYLAWYQQKPGQAPRLLIYDASSRATGIPARFSGSGSGTDFTLTISSLEPEDFAVYYCQQSEQVPTTFGQGTKVEIKR |  | no binding | no binding | 0.4 | 2.43 | 0.096 | 0.009
MOR12761 (antibody, V domains shown, Tested as human-mouse chimeric IgG2a (human variable, mouse constant regions); Potential N-linked glycosylation sites were removed by site-directed mutagenesis) VH: EVQLVQSGAEVKKPGESLKISCKGSGYSFNNYWIAWVRQMPGKGLEWMGFIYPSNSATQYSPSFQGQVTISADKSISTAYLQWSSLKASDTAMYYCARDNEYSDSYFDVWGQGTLVTVSS VL: DIVLTQSPATLSLSPGERATLSCRASQIVSSYLAWYQQKPGQAPRLLIYDASSRATGIPARFSGSGSGTDFTLTISSLEPEDFATYYCQQSNGWLPTFGQGTKVEIKR |  | no binding | no binding | 0.36 | 1.23 | 0.085 | 0.024
MOR12751 (antibody, V domains shown, Tested as human-mouse chimeric IgG2a (human variable, mouse constant regions); Potential N-linked glycosylation sites were removed by site-directed mutagenesis) VH: QVQLQQSGPGLVKPSQTLSLTCAISGDSVSSNSAAWNWIRQSPSRGLEWLGVIYYRSKWYINYADSVKSRITINPDTSKNQFSLQLNSVTPEDTAVYYCAREGIVGGWFAYWGQGTLVTVSS VL: DIELTQPPSVSVSPGQTASITCSGDKLGSKIAHWYQQKPGQAPVLVIYDDNERPSGIPERFSGSNSGNTATLTISGTQAEDEADYYCQSWDYLSWSVVFGGGTKLTVL |  | no binding | no binding | 0.39 | 3.75 |  | 0.16
MOR12740 (antibody, V domains shown, Tested as human-mouse chimeric IgG2a (human variable, mouse constant regions); Potential N-linked glycosylation sites were removed by site-directed mutagenesis) VH: QVQLVQSGAEVKKPGSSVKVSCKASGGTFSIYAISWVRQAPGQGLEWMGGIIPILGIANYAQKFQGRVTITADESTSTAYMELSSLRSEDTAVYYCARDATHSYYHDYWGQGTLVTVSS VL: DIALTQPASVSGSPGQSITISCTGTSSDVGSYETVSWYQQHPGKAPKVMIYEVSDRPSGVSNRFSGSKSGNTASLTISGLQAEDEADYYCGSFAHWGSWVFGGGTKLTVLG |  | no binding | no binding | 1.14 |  | 0.17 | 3.49
MOR12758 (antibody, V domains shown, Tested as human-mouse chimeric IgG2a (human variable, mouse constant regions); Potential N-linked glycosylation sites were removed by site-directed mutagenesis) VH: EVQLVQSGAEVKKPGESLKISCKGSGYSFTDYWISWVRQMPGKGLEWMGAIDPTDSYTRYSPSFQGQVTISADKSISTAYLQWSSLKASDTAMYYCARWYTSHPYYEGRYPMDVWGQGTLVTVSS VL: DIALTQPASVSGSPGQSITISCTGTSSDVGHYNYVSWYQQHPGKAPKLMIYGVTKRPSGVSNRFSGSKSGNTASLTISGLQAEDEADYYCASADEWPTLHVFGGGTKLTVLG | no binding |  |  |  |  |  | 
MOR12756 (antibody, V domains shown, Tested as human-mouse chimeric IgG2a (human variable, mouse constant regions); Potential N-linked glycosylation sites were removed by site-directed mutagenesis) VH: QVQLQQSGPGLVKPSQTLSLTCAISGDSVSDNSVAWNWIRQSPSRGLEWLGRIYYRSKWYNDYAVSVKSRITINPDTSKNQFSLQLNSVTPEDTAVYYCAREVLLFPARSYGTGMDVWGQGTLVTVSS VL: DIELTQPPSVSVSPGQTASITCSGDNLPSKYVHWYQQKPGQAPVLVIYDDNERPSGIPERFSGSNSGNTATLTISGTQAEDEADYYCGVADMPRQMKVFGGGTKLTVLG | no binding |  |  |  |  |  | 
MOR12755 (antibody, V domains shown, Tested as human-mouse chimeric IgG2a (human variable, mouse constant regions); Potential N-linked glycosylation sites were removed by site-directed mutagenesis) VH: QVQLQQSGPGLVKPSQTLSLTCAISGDSVSSNSAAWNWIRQSPSRGLEWLGKTYYRSTWSNDYAESVKSRITINPDTSKNQFSLQLNSVTPEDTAVYYCAREMDSLTRSASSIAFDYWGQGTLVTVSS VL: DIELTQPPSVSVSPGQTASITCSGDNLREHYVHWYQQKPGQAPVLVIYDDTERPSGIPERFSGSNSGNTATLTISGTQAEDEADYYCATRDWSNVVFGGGTKLTVLG | no binding |  |  |  |  |  | 
